pIC50: −log10 of the molar value.

For one test, the target named is HLA-A*02:01. The experiment in a line: IEDB peptide-MHC binding, purified MHC/competitive/radioactivity; ≥ and ≤ were set here for values at or beyond the usual limits of such assays. The note with it: source organism: Bordetella pertussis.
Turning to YVLVKTNMV, the pIC50 was 5.40.

A further test concerns the target HLA-B*07:02. Described as above. The note with it: source organism: Bordetella pertussis.
Consider EPASANTLL, for which the pIC50 was 4.82.
For the sequence LKRPGSSPM, the negative logarithm of the IC50 (pIC50) was 5.42.

The target in the next test is HLA-B*35:01. The description is as above. The note with it: source organism: Bordetella pertussis.
As to EPASANTLL, the pIC50 was 4.16.
Consider GAASSYFEY, for which the pIC50 was 5.57.
Take NALAWALML: the negative logarithm of the IC50 (pIC50) was 5.20.

Another test addresses HLA-B*44:03. Described as above. The note with it: source organism: Bordetella pertussis.
For the sequence AAQATVVQR, the pIC50 is 4.63.
Consider AEVTDTSPS, for which the negative logarithm of the IC50 (pIC50) was 4.39.
Consider FEPGITTNY, for which the pIC50 is 4.37.
For the sequence GAASSYFEY, the negative-log IC50 (pIC50) was 4.36.
In the case of RELSAAANA, the negative logarithm of the IC50 (pIC50) is 4.68.
As to YEYIWGLYQ, the pIC50 is 5.05.

Another test concerns the target HLA-B*53:01. The description is as above. The conditions noted are these: source organism: Bordetella pertussis.
Turning to ASPRRARRA, the pIC50 is 4.16.
Regarding GAASSYFEY, the negative-log IC50 (pIC50) is 4.33.
Regarding LAANGNGQW, the pIC50 is 5.78.
For LATYQSEYL, the pIC50 was at most 4.11.
As for MPIDRKTLC, the pIC50 was 5.79.
On the same count and under the same terms, the value for PKPKPKAER was at most 4.11; that for TAGATPFDI was 5.31.

The target of the next test is HLA-B*57:01. The test is described as above. The note with it: source organism: Bordetella pertussis.
For the sequence ASVSNPGTF, the pIC50 was 4.39.
Regarding KSLPGGKLP, the pIC50 is 5.24.

Source of the values: the Immune Epitope Database (IEDB).
